Experimental findings from publication PMC5647421, “Hetero-oligomer of dynamin-related proteins participates in the fission of highly divergent mitochondria from Entamoeba histolytica” (Scientific Reports, 2017) are described below.

The target of this assay is T1, EhDrpA (endogenous) (Entamoeba histolytica (endogenous in …, UniProt C4LX84 1-682)).
T1 construct: Entamoeba histolytica dynamin-related protein A (EhDrpA, earlier named EhDlp1), XP_649650; also called endogenous EhDrpA; native EhDrpA; source: endogenous, E. histolytica trophozoite whole cell lysate
T1 sequence (looked up): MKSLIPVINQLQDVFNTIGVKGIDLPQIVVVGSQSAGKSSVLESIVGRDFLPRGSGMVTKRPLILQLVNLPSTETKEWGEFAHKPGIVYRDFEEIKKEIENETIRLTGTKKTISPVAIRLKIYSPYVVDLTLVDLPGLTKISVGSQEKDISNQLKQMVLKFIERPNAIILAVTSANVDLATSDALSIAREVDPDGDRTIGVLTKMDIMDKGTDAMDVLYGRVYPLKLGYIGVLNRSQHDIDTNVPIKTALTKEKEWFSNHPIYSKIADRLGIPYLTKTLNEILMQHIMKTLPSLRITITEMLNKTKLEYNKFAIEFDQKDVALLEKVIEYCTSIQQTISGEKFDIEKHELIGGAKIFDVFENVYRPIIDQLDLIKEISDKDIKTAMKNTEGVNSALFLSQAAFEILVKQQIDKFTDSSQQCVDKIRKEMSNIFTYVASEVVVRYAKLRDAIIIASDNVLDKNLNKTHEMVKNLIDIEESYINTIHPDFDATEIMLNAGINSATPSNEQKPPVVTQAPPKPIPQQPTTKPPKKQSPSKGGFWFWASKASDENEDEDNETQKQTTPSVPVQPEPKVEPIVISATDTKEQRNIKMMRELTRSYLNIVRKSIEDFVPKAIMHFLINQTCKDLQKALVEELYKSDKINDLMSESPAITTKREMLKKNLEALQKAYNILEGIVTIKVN
Nature of the assay: co-IP; trophozoites of E. histolytica HM-1:IMSS cl6 wild type; immunoprecipitation by anti-DrpA or anti-DrpB antibodies; quantitative immunoblot with recombinant His6-EhDRP-HA proteins as standards. The settings on record: partners not purified.

“And” between values parts separate entries of the source, which are not always exact repeats. Identical values can stand only once.

B1: EhDrpB (endogenous) (natural protein, UniProt C4M3R5 1-663, looked up)
chain: MQRLIPVINSLQDVFTAAGLPNTLPLPQIVVVGSQSSGKSSVLEHVVGKDFLPRGSGIVTRRPLIVQCVRSNVAEDYGQFEHTGDRKFTDFGEIRNEITRETERTCPGRNVSSVPIRLRIYSSSVVDLTLVDLPGLVKVNINGQTAEMVKNLRDMVYEYASPSNALILAVTAGNIDIANSDALQVAKDVDPDGERTIGVLTKLDLEDKGTNSMDVLMGRVYPLKLGYIGVVNRSQQDINNGVDVKTSLRHEKEFFENHPVYCSIAERMGTEYMVNRLNVLLLQHIQKCLPGLKQQINQCYEKARSRYEDIKPDDENLLSLSLQQIMKFSGSFAAALNGTDTNIHTHEISGGAKIFSVFENNFRPTIDSQDILSGIKDVDILTAIKNASGTRPCLYVPQSAFENLISKQVRNFEGTCHNCVDNVYREMKVIVGKIAKDNIEKYDRFREALIQASTEVMNDYMTQTHKMVQDLIDIEADYINTSHPDFDTTKVLKEADEAMKTPQDGIDTIVTIDPNNTTNAQQYEAKKPVKSSFFAGQINKNQAKPQQQHVPKESITTSIRVDHTNQREMREINLIRNLCKDYLLIVRKSIKDLVPKAVIHFLVFKTRDSLQKELIKKLYNEALLQDLLAENPAIVNERKVVKQNLEALKKALDIINQVRDQCF
notes: Entamoeba histolytica dynamin-related protein B (EhDrpB), XP_651634; also called endogenous EhDrpB; native EhDrpB; source: endogenous, E. histolytica trophozoite whole cell lysate
For the molecule B1, the “stoichiometry N” value was 2 EhDrpB per EhDrpA and 3 EhDrpB per EhDrpA.
